Assay results reported in patent US20220306762A1 (CRYSTAL BIOSCIENCE, published 2022).

What was measured:
[1] = biological target: T1, human CD38 on transiently transfected Expi293 cells (Origene #SC321273) (human, UniProt P28907 1-300); assay: flow cytometry, transfected Expi293 cells;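 note: antibody binding to Expi293 cells transiently expressing human or murine CD38, antibodies applied at 10 ug/ml for 60 min on ice, read by flow cytometry as percent gated cells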
T1 construct: whole, on cells; also called Human (FACs)

[2] = biological target: T2, murine CD38 on transiently transfected Expi293 cells (Origene MC208001) (murine, UniProt P56528 1-304); assay: flow cytometry, transfected Expi293 cells;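 note: antibody binding to Expi293 cells transiently expressing human or murine CD38, antibodies applied at 10 ug/ml for 60 min on ice, read by flow cytometry as percent gated cells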
T2 construct: whole, on cells; also called Murine (FACs)
T2 sequence (looked up): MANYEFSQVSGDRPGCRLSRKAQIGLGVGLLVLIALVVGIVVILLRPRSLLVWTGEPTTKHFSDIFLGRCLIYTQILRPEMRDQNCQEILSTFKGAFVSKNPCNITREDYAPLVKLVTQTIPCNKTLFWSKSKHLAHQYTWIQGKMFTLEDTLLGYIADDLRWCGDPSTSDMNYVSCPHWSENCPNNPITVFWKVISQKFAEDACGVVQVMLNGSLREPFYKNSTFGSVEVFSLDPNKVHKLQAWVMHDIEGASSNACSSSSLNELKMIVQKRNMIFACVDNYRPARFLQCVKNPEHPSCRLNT

[3] = biological target: T3, His-tagged mouse CD38 (ACRO Biosystems #CD8-M5223) (mouse, UniProt P56528 45-304); assay: ELISA, coated His-CD38
T3 construct: bought recombinant protein with His tag; also called Murine
T3 sequence (looked up): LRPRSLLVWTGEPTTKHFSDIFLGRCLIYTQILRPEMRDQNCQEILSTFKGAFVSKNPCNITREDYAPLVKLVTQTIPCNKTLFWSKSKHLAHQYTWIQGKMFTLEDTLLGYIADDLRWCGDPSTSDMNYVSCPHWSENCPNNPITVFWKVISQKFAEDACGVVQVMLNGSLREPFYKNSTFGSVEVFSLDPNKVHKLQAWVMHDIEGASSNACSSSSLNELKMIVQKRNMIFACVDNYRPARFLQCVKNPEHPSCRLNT

[4] = biological target: T4, His-tagged cynomolgus monkey CD38 (ACRO Biosystems cat #CD8-05223) (cynomolgus monkey, UniProt Q5VAN0 43-301); assay: ELISA, coated His-CD38
T4 construct: bought recombinant protein with His tag

[5] = biological target: T5, His-tagged human CD38 (ACRO Biosystems cat #CD8-H5224) (human, UniProt P28907 43-300); assay: ELISA, coated His-CD38
T5 construct: bought recombinant protein with His tag

[6] = biological target: T4, His-tagged cynomolgus monkey CD38 (ACRO …); assay: SPR, captured scFv-Fc, His-CD38 analyte;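 note: SPR on a Carterra LSA, scFv-Fc captured by anti-human Fc on HC30M chip, His-tagged CD38 (human, mouse, cynomolgus) flowed as analyte in eight 1:2 steps from 400 nM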
[7] = biological target: T5, His-tagged human CD38 (ACRO Biosystems …); assay: SPR, captured scFv-Fc, His-CD38 analyte;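 note: SPR on a Carterra LSA, scFv-Fc captured by anti-human Fc on HC30M chip, His-tagged CD38 (human, mouse, cynomolgus) flowed as analyte in eight 1:2 steps from 400 nM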

Binder | FACs 10 ug/ml (percent gated) [1] | FACs 10 ug/ml (percent gated) [2] | ELISA 1 ug/ml [3] | ELISA 1 ug/ml [4] | ELISA 1 ug/ml [5] | Kd [6] | Kd [7]
40769p1.1.B12 (scFv, V domains shown, tested as scFv-Fc supernatant) VH: EVQLLESGGGLIQPGGSLRLSCTASGFDFSSYGMHWVRQAPGKGLEWVGIISDSGGTTYYADSVKGRFTISRDNSKNTMYLQMNSLRAEDTALYYCASYIMDVWGQGITVTVSS VL: QSVLTQPPSASGTPGQRVTISCSGSSSNVGGNSVYWYQQLPGTAPKLLFYGNHRRPSGVPDRFSGSKSGTSASLAISGLQSEDEADYYCAVWDDSLNAWVFGGGTKLTVL | 71.1% | 31.9% | 0.472 | 1.91 | 1.56 | 135 nM | 32.4 nM
40769p1.1.A2 (scFv, V domains shown, tested as scFv-Fc supernatant) VH: EVQLLESGGGLVQPGGSLRLSCAASGFLFDDYGMSWVRQAPGKGLEWVSAISYKGGSTYYADSVKGRFTISRDNSKNTLYLQMSSLRAEDTAVYYCAKDHKWNYYGMDVWGQGTTVTVSS VL: QSVLTQPPSASGTPGQRVTISCSGSTSNIGNDNYVSWYQQLPGTAPRLLIYKDDQRPSGVPDRFSGSKSGTSASLAISGLQSEDEADYYCGTWDDRLNAWVFGGGTKLTVL | 78.5% | 2.65% | 0.049 | 1.73 | 1.61 | 0.35 nM | 0.319 nM
40769p1.1.G5 (scFv, V domains shown, tested as scFv-Fc supernatant) VH: EVQLLESGGGFVQPGGSLRLSCAASGFNFNNAWMNWVRQAPGKGLEWVGIINGDGTNTYYADSVKGRFTISRDNSKNTLYLQMSSLRAEDTAIYYCARDNKLNDYYYAMDVWGQGTTVTV VL: QSVLTQPSSASGTPGQRVTISCSGGSSNIHANYVYWYQQLPGTAPKLLIYRNSQRPSGVPDRFSGSKSGTSASLAISGLQSEDEADYYCGTWDNILNVWVFGGGTKLTVL | 84.4% |  |  | 2.01 | 1.72 | 11.5 nM | 3.11 nM
40596p1.E4 (scFv, V domains shown, tested as scFv-Fc supernatant) VH: EVQLLESGGGLVQPGGSLRLSCAASGFDFSGSAMSWVRQAPGKGLEYVAGLGWSGSFIYYADSVKGRSTISRDNSKNTLYLQLNSLRAEDTAVYYCARNPGFGEMDVWGQGTTVTVSS VL: EIVLTQSPGSLSLSPGERATLSCRASQTVGSNLAWYQQKPGQAPRLLIYGASTRATDIPDRFSGSGSGTEFTLTISSLQSEDFAVYYCQQYNSWPPLTFGGGTKVEIK | 64.2% | 34% | 1.72 | 1.77 | 1.93 | 17.8 nM | 56.9 nM
40769p1.1.B8 (scFv, V domains shown, tested as scFv-Fc supernatant) VH: EVQLLESGGGLVQPGGSLRLSCAASGFTFEDYAMSWVRQAPGKGLEWVSVISSKGGSTSNADSVKGRFTISRDNSKNTLYLQMNSLRAEDTAVYYCAKGMERQYYSYNAMDVWGQGTTVTVSS VL: QSVLTQPPSASGTPGQRVTISCSGSNSNIDVDYVYWYQQLPGTAPRLLIYKDDQRPSGVPDRFSGSKSGTSASLAISGLQSEDEADYYCATWDDNLNSWLFGGGTKLTVL | 81.4% | 0.04% | 0.048 | 1.75 | 1.64 | 1.62 nM | 0.101 nM
40769p1.1.E2 (scFv, V domains shown, tested as scFv-Fc supernatant) VH: EVLLLESGGGLVQPGGSLRLSCAASGFTFSDYWMSWVRQAPGKGLEWVSTISISAGIIYYADSVKGRFTISRDNSKNTLYLQMNSLRAEDTAVYYCAKDNWNDYYGMDVWGQGTTVTVSS VL: QSVLTQPPSASGTPGQRVTMSCSGNNQNIRDNYVYWYQQVPGTAPKLLIYKDDQRPSGVPDRFSGSKSGTSASLAISGLQSEDEADYYCATWDGSLKARVFGGGTKLTVL | 82% |  |  | 1.98 | 1.65 | 4.4 nM | 3.23 nM
40769p1.1.G10 (scFv, V domains shown, tested as scFv-Fc supernatant) VH: EVQLLESGGGLVQPGGSLRLSCAASGFTFSDYWMNWVRQAPGKGLEWVSTISSGGSMIYHADSVKGRFTISRDNSKNTLYLQMNSLRPEDTAVYYCAKDNWNDYYGMDVWGQGTTVTVSS VL: QSVLTQPPSASGTPGQRVNISCSGSSSNIRYNYVYWYQQVPGTAPKLLIYKDDQRPSGVPDRFSGSESGTSASLAISGLQSEDEADYYCATWDGSLNARVFGGGTKLTVL | 77.5% |  |  | 2.11 | 1.75 | 154 nM | 78.9 nM
40769p1.1.H3 (scFv, V domains shown) VH: EVQLLESGGGLVQPGGSLRLSCAASGFAFNDYLMSWVRQAPGKGLEWVSTISWSGGSTYYADSVKGRFTISRDNSKNTLYLQMNSLRAEDTALYYCARDRYRYNYYYFMDVWGQGTTVTV VL: QSVLTQPPSASGTPGQRVTISCSGSTSDSPYDRIDWYQQLPGTAPKLLIYKDDQRPSGVPDRFSGSKSGTSASLAISGLQSEDEADYYCATWDAMLSAWVFGGGTKLTVL | 82.5% | 3.84% | 0.049 |  |  |  | 
40769p1.2.E3 (scFv, V domains shown, tested as scFv-Fc supernatant) VH: EVQLLESGGDLVQPGGSLRLSCGASGFTFSDHYMSWVRQAPGKGLEWVADISARGSNTWYADSVKGRFTISRDNSENTLYLQMNSLRAEDTAVYYCAKNWNYNYGMDVWGQGTTVTVSS VL: QSVLTQAPSASGTPGQRVTISCSGSSIQNNYVSWYQQLPGTAPKLLIYRNFERPSGVPDRFSASKSGTSASLAISGLQSEDEADYYCASWDDSLNWVFGGGTKLTVL | 80.5% |  |  | 1.7 | 1.59 | 2.11 nM | 2.24 nM
40769p1.2.F9 (scFv, V domains shown, tested as scFv-Fc supernatant) VH: EVQLLESGGDLVQPGGSLRLSCGASGFTFSDHYMSWVRQAPGKGLEWVADISARGSNTWYADSVKGRFTISRDNSENTLYLQMNSLRAEDTAVYYCAKNWNYNYGMDVWGQGTTVTVSS VL: QSVLTQAPSASGTPGQRVTISCSGSSIQNNYVSWYQQLPGTAPKLLIYRNFERPSGVPDRFSASKSGTSASLAISGLQSGDEADYYCASWDDSLNWVFGGGTKLTVL | 79.4% |  |  | 1.56 | 1.47 |  | 17.1 nM
40769p1.2.B4 (scFv, V domains shown, tested as scFv-Fc supernatant) VH: EVQLLESGGDLVQPGGSLRLSCGASGFTFSDHYMSWVRQAPGKGLEWVADISARGSNTWYADSVKGRFTISRDNSENTLYLQMNSLRAEDTAVYYCAKNWNYNYGMDVWGHGTTVTVSS VL: QSVLTQAPSASGTPGQRVTISCSGSSIQNNYVSWYQQLPGTAPKLLIYRNFERPSGVPDRFSASKSGTSASLAISGLQSEDEADYYCASWDDSLNWVFGGGTKLTVL | 81% |  |  | 1.73 | 1.55 | 2.34 nM | 2.38 nM
40769p1.1.B10 (scFv, V domains shown, tested as scFv-Fc supernatant) VH: EVQLLESGGGLVQPGGSLRLSCTASGITFSRFNMFWVRQAPGKGLEFVASIRDDGSWTYYADSVKGRFTISRDNSKNTLYLQMNSLRAEDTAVYYCAKDYNSKDFIYHYVMDVWGQGTTVTVSS VL: QSVLTQPPSASGTPGQRVTISCSGRNSNIGNNVVNWYQQLPGTAPKLLIYRNQERPSGVPDRFSGSKSGTSASLAISGLQSEDEADYYCSTWDDSLNGWVFGGGTKLTVL | 76.4% | 0.38% | 0.049 | 2.05 | 1.5 | 96400 nM | 8.02 nM
